Assay results as given in PMC12138080 (Acta Pharmaceutica Sinica. B, 2025).

Biological target: T1, Human GRK2 protein (His Tag) (human, UniProt P25098 1-689)
T1 sequence: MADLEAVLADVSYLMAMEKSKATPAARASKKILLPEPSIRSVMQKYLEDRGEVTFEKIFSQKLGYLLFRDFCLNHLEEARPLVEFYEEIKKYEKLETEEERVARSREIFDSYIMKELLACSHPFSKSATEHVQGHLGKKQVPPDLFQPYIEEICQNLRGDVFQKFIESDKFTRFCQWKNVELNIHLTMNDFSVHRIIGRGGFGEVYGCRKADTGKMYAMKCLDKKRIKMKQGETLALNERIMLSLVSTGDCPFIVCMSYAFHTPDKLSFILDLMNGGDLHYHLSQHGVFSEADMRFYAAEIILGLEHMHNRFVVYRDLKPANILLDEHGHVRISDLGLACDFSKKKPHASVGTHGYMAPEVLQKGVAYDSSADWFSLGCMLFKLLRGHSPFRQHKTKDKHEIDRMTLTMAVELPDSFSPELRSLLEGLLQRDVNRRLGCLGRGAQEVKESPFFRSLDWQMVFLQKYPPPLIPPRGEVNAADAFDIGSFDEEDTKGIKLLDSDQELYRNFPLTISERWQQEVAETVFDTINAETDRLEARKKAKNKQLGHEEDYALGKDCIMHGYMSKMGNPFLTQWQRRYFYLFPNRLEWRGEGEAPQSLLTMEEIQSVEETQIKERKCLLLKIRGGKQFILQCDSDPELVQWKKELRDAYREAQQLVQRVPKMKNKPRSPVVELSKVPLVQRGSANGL
Experiment: SPR

B1: Human TRAF2 protein (His Tag) (natural protein)
chain: MAAASVTPPGSLELLQPGFSKTLLGTKLEAKYLCSACRNVLRRPFQAQCGHRYCSFCLASILSSGPQNCAACVHEGIYEEGISILESSSAFPDNAARREVESLPAVCPSDGCTWKGTLKEYESCHEGRCPLMLTECPACKGLVRLGEKERHLEHECPERSLSCRHCRAPCCGADVKAHHEVCPKFPLTCDGCGKKKIPREKFQDHVKTCGKCRVPCRFHAIGCLETVEGEKQQEHEVQWLREHLAMLLSSVLEAKPLLGDQSHAGSELLQRCESLEKKTATFENIVCVLNREVERVAMTAEACSRQHRLDQDKIEALSSKVQQLERSIGLKDLAMADLEQKVLEMEASTYDGVFIWKISDFARKRQEAVAGRIPAIFSPAFYTSRYGYKMCLRIYLNGDGTGRGTHLSLFFVVMKGPNDALLRWPFNQKVTLMLLDQNNREHVIDAFRPDVTSSSFQRPVNDMNIASGCPLFCPVSKMEAKNSYVRDDAIFIKAIVDLTGL
- Kd: 31.2 nM
